Experimental data from the supplement of paper PMC9112550, “Optimization of the antimicrobial peptide Bac7 by deep mutational scanning” (BMC Biology, 2022).

test system: Escherichia coli TOP10; test: shrunken log2 fold change of peptide-encoding DNA abundance (4.5 h post-induction vs induction); higher = less antimicrobial activity (less host growth inhibition); details: time post-induction: 4.5 h; library: site-saturation at positions 5, 18, 19, 20
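Also: peptides expressed intracellularly from a pBAD plasmid library in pooled LB shake-flask culture, induced with 0.3% L-arabinose, DNA abundance read by NGS, three biological replicates, DESeq2 with apeglm shrinkage.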

Sequence	shrunken log2 fold change
RRIRMRPPRLPRPRPRPADMPRP	0.728
RRIRDRPPRLPRPRPRPCYDPRP	-0.129
RRIRYRPPRLPRPRPRPPDLPRP	-0.212
RRIRCRPPRLPRPRPRPKIKPRP	-0.287
RRIRCRPPRLPRPRPRPSVEPRP	0.00103
RRIRNRPPRLPRPRPRPLMEPRP	-0.0667
RRIRGRPPRLPRPRPRPAHPPRP	0.754
RRIRHRPPRLPRPRPRPRNIPRP	-0.326
RRIRWRPPRLPRPRPRPSRRPRP	0.215
RRIRARPPRLPRPRPRPIGKPRP	-0.00841
RRIRSRPPRLPRPRPRPNAQPRP	0.0609
RRIRARPPRLPRPRPRPANFPRP	0.137
RRIRSRPPRLPRPRPRPMSKPRP	-0.032
RRIRIRPPRLPRPRPRPNDEPRP	-0.781
RRIRTRPPRLPRPRPRPSHGPRP	0.0388
RRIRNRPPRLPRPRPRPYQEPRP	-0.00962
RRIRVRPPRLPRPRPRPLHVPRP	-0.311
RRIRPRPPRLPRPRPRPVHIPRP	-0.208
RRIRKRPPRLPRPRPRPFILPRP	-0.0304
RRIRQRPPRLPRPRPRPYMQPRP	-0.239
RRIRSRPPRLPRPRPRPVLPPRP	-0.167
RRIRYRPPRLPRPRPRPDHIPRP	0.0129
RRIRKRPPRLPRPRPRPGITPRP	0.266
RRIRPRPPRLPRPRPRPDYQPRP	-0.211
RRIRHRPPRLPRPRPRPQRWPRP	0.00359

Sequence	shrunken log2 fold change
RRIRTRPPRLPRPRPRPGRWPRP	0.393
RRIRWRPPRLPRPRPRPDEMPRP	-0.0412
RRIRQRPPRLPRPRPRPSPKPRP	-0.143
RRIRPRPPRLPRPRPRPTGTPRP	0.104
RRIRLRPPRLPRPRPRPHKSPRP	-0.399
RRIRPRPPRLPRPRPRPSAEPRP	0.257
RRIRDRPPRLPRPRPRPQTIPRP	-0.164
RRIRSRPPRLPRPRPRPVQNPRP	0.0832
RRIRYRPPRLPRPRPRPPIDPRP	-0.35
RRIRQRPPRLPRPRPRPHGCPRP	0.0414
RRIRCRPPRLPRPRPRPITFPRP	-0.167
RRIRCRPPRLPRPRPRPVPMPRP	0.998
RRIRHRPPRLPRPRPRPQTVPRP	-0.495
RRIRHRPPRLPRPRPRPQATPRP	0.00115
RRIRLRPPRLPRPRPRPPPDPRP	1.19
RRIRERPPRLPRPRPRPGTWPRP	-0.0304
RRIRQRPPRLPRPRPRPNPHPRP	0.121
RRIRIRPPRLPRPRPRPIVAPRP	-0.119
RRIRTRPPRLPRPRPRPGRIPRP	-0.171
RRIRLRPPRLPRPRPRPCWLPRP	0.0345
RRIRCRPPRLPRPRPRPVPGPRP	0.0667
RRIRSRPPRLPRPRPRPGITPRP	-0.151
RRIRVRPPRLPRPRPRPQVAPRP	-0.136
RRIRTRPPRLPRPRPRPWTPPRP	-0.00155
RRIRDRPPRLPRPRPRPWIPPRP	-0.0565

Sequence	shrunken log2 fold change
RRIRARPPRLPRPRPRPMMPPRP	0.307
RRIRNRPPRLPRPRPRPSMPPRP	-0.139
RRIRDRPPRLPRPRPRPGDNPRP	2.29
RRIRVRPPRLPRPRPRPNCDPRP	-0.356
RRIRIRPPRLPRPRPRPEMVPRP	-0.14
RRIRRRPPRLPRPRPRPIWDPRP	0.604
RRIRCRPPRLPRPRPRPYYLPRP	-0.38
RRIRLRPPRLPRPRPRPDLFPRP	-0.000844
RRIRRRPPRLPRPRPRPALWPRP	1.02
RRIRNRPPRLPRPRPRPMINPRP	-0.346
RRIRDRPPRLPRPRPRPMWCPRP	0.00673
RRIRQRPPRLPRPRPRPTETPRP	0.0687
RRIRVRPPRLPRPRPRPQRYPRP	-0.883
RRIRPRPPRLPRPRPRPPFTPRP	0.185
RRIRNRPPRLPRPRPRPKFAPRP	-0.0695
RRIRMRPPRLPRPRPRPWPKPRP	0.543
RRIRCRPPRLPRPRPRPISYPRP	-0.485
RRIRHRPPRLPRPRPRPMVTPRP	-1.08
RRIRPRPPRLPRPRPRPTGDPRP	0.649
RRIRVRPPRLPRPRPRPVWYPRP	-0.154
RRIRGRPPRLPRPRPRPETGPRP	0.81
RRIRERPPRLPRPRPRPPIQPRP	-0.27
RRIRQRPPRLPRPRPRPPQVPRP	1.3
RRIRLRPPRLPRPRPRPSCMPRP	-0.362
RRIRFRPPRLPRPRPRPMTQPRP	-0.421

Sequence	shrunken log2 fold change
RRIRFRPPRLPRPRPRPEGRPRP	-0.145
RRIRIRPPRLPRPRPRPFLAPRP	-0.493
RRIRRRPPRLPRPRPRPDFGPRP	0.0803
RRIRCRPPRLPRPRPRPSKNPRP	-0.382
RRIRIRPPRLPRPRPRPEAIPRP	-0.0271
RRIRFRPPRLPRPRPRPNWKPRP	0.0201
RRIRFRPPRLPRPRPRPHIHPRP	-1.17
RRIRSRPPRLPRPRPRPHRKPRP	-0.077
RRIRNRPPRLPRPRPRPARVPRP	0.574
RRIRNRPPRLPRPRPRPDCKPRP	-0.0698
RRIRWRPPRLPRPRPRPKASPRP	-0.00939
RRIRYRPPRLPRPRPRPWIWPRP	-0.000921
RRIRARPPRLPRPRPRPTYPPRP	-0.0587
RRIRQRPPRLPRPRPRPEQYPRP	-0.0417
RRIRIRPPRLPRPRPRPANGPRP	0.0224
RRIRMRPPRLPRPRPRPWGCPRP	0.311
RRIRPRPPRLPRPRPRPAGLPRP	0.279
RRIRNRPPRLPRPRPRPSNNPRP	-0.96
RRIRKRPPRLPRPRPRPPNCPRP	0.0388
RRIRERPPRLPRPRPRPWCVPRP	-0.94
RRIRQRPPRLPRPRPRPVQSPRP	0.0508
RRIRIRPPRLPRPRPRPAMFPRP	-0.45
RRIRYRPPRLPRPRPRPNTQPRP	-0.17
RRIRSRPPRLPRPRPRPDNLPRP	-0.0926
RRIRSRPPRLPRPRPRPWAEPRP	0.0168

Sequence	shrunken log2 fold change
RRIRGRPPRLPRPRPRPGYVPRP	-0.00987
RRIRIRPPRLPRPRPRPTSEPRP	0.00551
RRIRRRPPRLPRPRPRPYSMPRP	-1.39
RRIRRRPPRLPRPRPRPCNRPRP	-0.509
RRIRERPPRLPRPRPRPVILPRP	-0.388
RRIRYRPPRLPRPRPRPKEIPRP	-0.0434
RRIRRRPPRLPRPRPRPAACPRP	0.0555
RRIRKRPPRLPRPRPRPKFMPRP	-0.0124
RRIRCRPPRLPRPRPRPAQTPRP	0.0194
RRIRIRPPRLPRPRPRPFQRPRP	-0.0107
RRIRRRPPRLPRPRPRPCHLPRP	-0.0646
RRIRFRPPRLPRPRPRPHLQPRP	-0.144
RRIRCRPPRLPRPRPRPVMHPRP	-0.212
RRIRPRPPRLPRPRPRPLPRPRP	0.443
RRIRDRPPRLPRPRPRPQLAPRP	0.505
RRIRHRPPRLPRPRPRPMSTPRP	-0.12
RRIRERPPRLPRPRPRPCKMPRP	-0.427
RRIRSRPPRLPRPRPRPEDLPRP	-0.0115
RRIRRRPPRLPRPRPRPFEYPRP	-0.0276
RRIRFRPPRLPRPRPRPWFMPRP	-0.609
RRIRKRPPRLPRPRPRPSTTPRP	0.162
RRIRRRPPRLPRPRPRPNYYPRP	-0.333
RRIRTRPPRLPRPRPRPAHWPRP	0.882
RRIRNRPPRLPRPRPRPQPYPRP	-0.0389
RRIRERPPRLPRPRPRPLFFPRP	-0.225

Sequence	shrunken log2 fold change
RRIRKRPPRLPRPRPRPTLGPRP	1.72
RRIRDRPPRLPRPRPRPHEIPRP	-0.0115
RRIRFRPPRLPRPRPRPHQMPRP	-0.037
RRIRCRPPRLPRPRPRPRFIPRP	-0.171
RRIRMRPPRLPRPRPRPQYGPRP	0.015
RRIRYRPPRLPRPRPRPWRIPRP	-0.297
RRIRCRPPRLPRPRPRPCAPPRP	-0.00137
RRIRYRPPRLPRPRPRPWVKPRP	0.0136
RRIRTRPPRLPRPRPRPPVHPRP	0.0813
RRIRARPPRLPRPRPRPRLEPRP	0.766
RRIRQRPPRLPRPRPRPGTKPRP	0.0136
RRIRARPPRLPRPRPRPEHLPRP	0.108
RRIRYRPPRLPRPRPRPQIRPRP	-0.00839
RRIRQRPPRLPRPRPRPEHNPRP	-0.137
RRIRNRPPRLPRPRPRPQFMPRP	-0.709
RRIRYRPPRLPRPRPRPKVTPRP	-0.114
RRIRYRPPRLPRPRPRPLRTPRP	-0.151
RRIRKRPPRLPRPRPRPTTNPRP	0.486
RRIRRRPPRLPRPRPRPVVCPRP	0.0897
RRIRFRPPRLPRPRPRPFAEPRP	-0.348
RRIRVRPPRLPRPRPRPWCSPRP	-0.638
RRIRQRPPRLPRPRPRPLVLPRP	0.00943
RRIRQRPPRLPRPRPRPYQHPRP	-0.515
RRIRDRPPRLPRPRPRPTIWPRP	-0.0201
RRIRQRPPRLPRPRPRPDAQPRP	-9.3e-05
